The values below come from patent US20120315277A1, “Compositions and Methods for the Therapy and Diagnosis of Influenza” (priority 2011, published 2012).

Values joined by “and” are separate entries in the source; they are usually repeats but may differ in a detail not shown here. Identical values can stand only once. Like-named read-outs stand apart in the source and are kept apart here.

Assay [1] has as its system H5N1 (VN1203/04). On the set-up: key to Liver: viral antigens: +++: many; ++: moderate; +: few; ±: rare; −: negative; key to Liver: pathological changes / Lung: pathological changes / Brain: pathological changes: +++: severe; ++: moderate; +: mild; ±: scant; −: not observed. The note with it: mouse, in vivo.
Assay [2] concerns H5N1 (VN1203/04). On the set-up: key: +++: many; ++: moderate; +: few; ±: rare; −: negative. Particulars: mouse, in vivo.
In assay [3] the test system is H5N1 (VN1203/04). On the set-up: key: +++: severe; ++: moderate; +: mild; ±: scant; −: not observed. Particulars: mouse, in vivo.
For assay [4], the target named is M2 protein on influenza A/Puerto Rico/8/34 (H1N1) virus particles (influenza A virus A/Puerto Rico/8/34 (H1N1)) (UniProt P06821). Nature of the assay: FAb fragments on whole PR8 virus.
The target is the same in assay [5]. The assay can be described thus: SPR, Fab on influenza virus (A/Puerto Rico/8/34). For orientation: SPR reads the build-up and loss of mass on a sensor chip optically.
The subject of assay [6] is H1N1 (A/Solomon Islands/06). Nature of the assay: H1N1 challenge IV at 10LD50 (Example 16). The assay is classed as in vivo, mouse (balb/c). Particulars: 10MLD50; antibody on days 3 and 5.
The subject of assay [7] is H5N1 (A/Vietnam/1203/04, VN1203). On the set-up: species or system mouse (balb/c). The note with it: mouse, in vivo.
Assay [8] shares this test system. On the set-up: species or system mouse (balb/c). Particulars: mouse, in vivo. The source holds these as a separate data set.
For assay [9] the test system is unchanged. The arrangement: species or system mouse (balb/c). The note with it: mouse, in vivo. This is another data set of the same source.
A further assay has as its system H1N1 (A/NWS/33). The assay can be described thus: H1N1 challenge V at 2 or 4 LD50 (Example 17). The note with it: antibody 20 mg/kg, oseltamivir 10 mg/kg bid. It is filed as in vivo, mouse (balb/c).
Assay [10] deals with H5N1 (A/Vietnam/1203/04, VN1203). The arrangement: species or system mouse (balb/c). Particulars: mouse, in vivo. The source holds these as a separate data set.
The subject of the next assay is H1N1 (A/PR/8/34). The assay can be described thus: H1N1 challenge VI at 5LD50 (Example 18). It is filed as in vivo, mouse (balb/c). The note with it: 5MLD50; antibody 20 mg/kg days 1, 3, 5; oseltamivir 10 mg/kg four hours post-infection.
The subject of assay [11] is H5N1 (VN1203/04). The note with it: mouse, in vivo.
Assay [12] addresses T1, M2 protein of influenza A/Fort Worth/1/50 (H1N1), expressed on 293 cells (influenza A virus A/Fort Worth/1/50 …).
T1 chain: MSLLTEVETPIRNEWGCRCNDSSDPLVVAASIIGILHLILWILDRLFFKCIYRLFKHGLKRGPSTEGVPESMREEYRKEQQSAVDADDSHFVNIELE
Nature of the assay: cell staining images, 293-HEK cells stably expressing M2.

For assay [13], the target named is T2, M2 protein on influenza A/Puerto Rico/8/34 (H1N1) virus particles (influenza A virus A/Puerto Rico/8/34 …, UniProt P06821 1-97). Nature of the assay: ELISA on purified A/Puerto Rico/8/34 virus. On the technique in general: An ELISA detects its analyte on a solid surface through an enzyme-linked reagent.
The target in assay [14] is T2, M2 protein on influenza A/Puerto …. The assay can be described thus: ELISA on A/PR/8 virus, normalised to 8i10 at 10 µg/ml [D00002 FIG. 2B].
In assay [15] the target is M2 protein of influenza A/Puerto Rico/8/34 (H1N1) on cells (influenza A virus A/Puerto Rico/8/34 …, UniProt P06821 1-97). Nature of the assay: FACS, MDCK cells infected with A/Puerto Rico/8/34. A general note: Flow cytometry measures light scatter and fluorescence of single cells or particles in a stream.
In assay [16] the target is truncated M2 peptide SEQ ID NO 312. The assay can be described thus: peptide ELISA, 5 µg/mL.
The target in assay [17] is truncated M2 peptide SEQ ID NO 305. The assay can be described thus: peptide ELISA, 5 µg/mL.
Assay [18] addresses truncated M2 peptide SEQ ID NO 309. The assay can be described thus: peptide ELISA, 5 µg/mL.
In assay [19] the target is truncated M2 peptide SEQ ID NO 315. Nature of the assay: peptide ELISA, 5 µg/mL.
Assay [20] deals with truncated M2 peptide SEQ ID NO 298. The assay can be described thus: peptide ELISA, 5 µg/mL.
Assay [21] has as its target truncated M2 peptide SEQ ID NO 303. The assay can be described thus: peptide ELISA, 5 µg/mL.
Assay [22] concerns the target truncated M2 peptide SEQ ID NO 299. Nature of the assay: peptide ELISA, 5 µg/mL.
In assay [23] the target is truncated M2 peptide SEQ ID NO 300. Nature of the assay: peptide ELISA, 5 µg/mL.
In assay [24] the target is truncated M2 peptide SEQ ID NO 302. Nature of the assay: peptide ELISA, 5 µg/mL.
The target in assay [25] is truncated M2 peptide SEQ ID NO 306. The assay can be described thus: peptide ELISA, 5 µg/mL.
Assay [26] concerns the target truncated M2 peptide SEQ ID NO 308. Nature of the assay: peptide ELISA, 5 µg/mL.
For assay [27], the target named is truncated M2 peptide SEQ ID NO 316. The assay can be described thus: peptide ELISA, 5 µg/mL.
Assay [28] concerns the target truncated M2 peptide SEQ ID NO 310. Nature of the assay: peptide ELISA, 5 µg/mL.
The next assay concerns the target M2 peptide SEQ ID NO 273. Nature of the assay: peptide ELISA, 5 µg/mL.
Assay [29] concerns the target truncated M2 peptide SEQ ID NO 307. Nature of the assay: peptide ELISA, 5 µg/mL.
Assay [30] has as its target truncated M2 peptide SEQ ID NO 313. The assay can be described thus: peptide ELISA, 5 µg/mL.
Assay [31] addresses truncated M2 peptide SEQ ID NO 304. Nature of the assay: peptide ELISA, 5 µg/mL.
Assay [32] concerns the target truncated M2 peptide SEQ ID NO 271. Nature of the assay: peptide ELISA, 5 µg/mL.
In assay [33] the target is truncated M2 peptide SEQ ID NO 314. The assay can be described thus: peptide ELISA, 5 µg/mL.
For assay [34], the target named is truncated M2 peptide SEQ ID NO 311. Nature of the assay: peptide ELISA, 5 µg/mL.
Assay [35] addresses truncated M2 peptide SEQ ID NO 301. Nature of the assay: peptide ELISA, 5 µg/mL.

Turning to `CCOC(=O)C1=C[C@@H](OC(CC)CC)[C@H](NC(C)=O)[C@@H](N)C1` [Osel], in the assay on H5N1 (VN1203/04) [1], the “Brain: pathological changes” value was “−/− and ++/++ and +/++”; the “Liver: pathological changes” value is “−/−”; the “Liver: viral antigens” value is recorded as “−/−”; the “Lung: pathological changes” value is “+/+ and +/++ and ++/++”. In the assay with H5N1 (VN1203/04) [2], the “Brain: viral antigens” value is given as “−/−” and the “Lung: viral antigens” value is listed as “+/+”. Moreover, in the assay on H5N1 (VN1203/04) [3], the “Brain: viral antigens” value was “++/++ and +/++”; the “Lung: viral antigens” value is “+/++ and ++/++”.
Usually Kd stands for the free concentration of one partner at which half of the binding sites on the other are occupied at equilibrium, for simple one-to-one binding. One may read the koff as a measure of how fast the partners let go of each other. Usually kon stands for the second-order rate constant of association. For the molecule cH14C2 Fab, in [4], the dissociation constant (Kd) amounted to 4 µM, the koff amounted to 0.00286 s⁻¹ and the on-rate constant (kon) is 500 M⁻¹ s⁻¹. Further, in assay [5], the Kd is 4 µM, the dissociation rate constant (koff) is 0.0018 s⁻¹ and the kon stood at 500 M⁻¹ s⁻¹.
Take `CCOC(=O)C1=C[C@@H](OC(CC)CC)[C@H](NC(C)=O)[C@@H](N)C1` [oseltamivir]: in assay [6], the “mice surviving until day 21” value is reported as “about 10%”. Also, the “survival rate at day 14” value in assay [7] was 20%; in [10], 20%; in the assay on H5N1 (VN1203/04) [11], 90% and 50%. In addition, the “protection from death (in words)” value in assay [8] is “completely protected mice”. Further, in [8], the “protection from weight loss (in words)” value is on record as “completely protected mice”. For the same molecule, in assay [8], the “survival rate at day 15” value worked out at 60%. Moreover, the “weight remaining (in words)” value in [8] is on record as “retained more weight”. For the same molecule, in [9], the “survival (in words)” value is given as “extinction of the population prior to the end of the therapy”. In addition, the “survival rate at day 21” value in the assay with H1N1 (A/NWS/33) (2MLD50) is recorded as 90%; in the assay with H1N1 (A/NWS/33) (4MLD50), 100%; in the assay with H1N1 (A/PR/8/34) it was 80%.

B1: 8I10 (antibody, V domains shown)
VH: QVQLQESGPGLVKPSETLSLTCTVSGSSISNYYWSWIRQSPGKGLEWIGFIYYGGNTKYNPSLKSRVTISQDTSKSQVSLTMSSVTAAESAVYFCARASCSGGYCILDYWGQGTLVTVS
VL: DIQMTQSPSSLSASVGDRVTITCRASQNIYKYLNWYQQRPGKAPKGLISAASGLQSGVPSRFSGSGSGTDFTLTITSLQPEDFATYYCQQSYSPPLTFGGGTRVEIK
In general, EC50 refers to the concentration at which the effect is half-maximal. The term EC50 (read off the curve) denotes the concentration needed to bring the measured effect to its halfway point. Consider B1, for which the binding result in assay [12] was “binds”. The same molecule registered an EC50 in [13] of about 0.1 µg/mL. Also, the entries for the “EC50 (read off the curve)” value in assay [14] and in assay [15] were about 0.04 µg/mL and about 0.1 µg/mL, respectively. Also, the ELISA A450 in [16] was 0.1; in assay [17], 0.14; in assay [18] it was 0.12; in assay [19], 0.1; in [20] it was 0.09; in [21] it was 0.12. The ELISA A450 is 0.09 in assay [22]; 0.09 in assay [23]; 0.13 in [24]; 0.14 in assay [25]; 0.29 in assay [26]; 0.1 in [27]. For the same molecule, the ELISA A450 in assay [28] came to 0.11; with M2 peptide SEQ ID NO 273, 0.11; in assay [29], 0.26; in assay [30], 0.13; in assay [31], 0.14; in assay [32], 0.12. Further, the ELISA A450 in assay [33] is 0.1; in assay [34], 0.11; in assay [35], 0.11.

B2: 21B15 (antibody, V domains shown)
VH: QVQLQESGPGLVKPSETLSLTCTVSGSSISNYYWSWIRQSPGKGLEWIGFIYYGGNTKYNPSLKSRVTISQDTSKSQVSLTMSSVTAAESAVYFCARASCSGGYCILDYWGQGTLVTVS
VL: DIQVTQSPSSLSASVGDRVTITCRASQNIYKYLNWYQQRPGKAPKGLISAASGLQSGVPSRFSGSGSGTDFTLTITSLQPEDFATYYCQQSYSPPLTFGGGTRVDIK
For the molecule B2, in [12], the binding result is reported as “binds”.

B3: 23K12 (antibody, V domains shown)
VH: EVQLVESGGGLVQPGGSLRISCAASGFTVSSNYMSWVRQAPGKGLEWVSVIYSGGSTYYADSVKGRFSFSRDNSKNTVFLQMNSLRAEDTAVYYCARCLSRMRGYGLDVWGQGTTVTVS
VL: DIQMTQSPSSLSASVGDRVTITCRTSQSISSYLNWYQQKPGKAPKLLIYAASSLQSGVPSRFSGSGSGTDFTLTISGLQPEDFATYYCQQSYSMPAFGQGTKLEIK
As to B3, in [12], the binding result is on record as “binds”. The EC50 in assay [13] was about 0.1 µg/mL. For the same molecule, the half-maximal effective concentration (EC50 (read off the curve)) in [14] was about 0.06 µg/mL; in [15], about 0.2 µg/mL. For the same molecule, the ELISA A450 is 0.24 in [16]; 0.34 in assay [17]; 0.2 in assay [19]; 0.34 in assay [21]; 0.2 in assay [23]; 0.35 in assay [24]. Further, the ELISA A450 in assay [25] stood at 0.39; in [27], 0.2; in assay [28], 0.24; in [30], 0.3; in assay [31] it was 0.36; in assay [32], 0.3. In addition, the ELISA A450 in assay [33] came out at 0.24; in assay [34], 0.25; in assay [35], 0.34.
